The target in the test is prostate specific membrane antigen (PSMA) (UniProt Q04609). The test is described as follows: cell-based or functional assay.
prostate specific membrane antigen (PSMA), sequence (Q04609 whole entry, form in doubt): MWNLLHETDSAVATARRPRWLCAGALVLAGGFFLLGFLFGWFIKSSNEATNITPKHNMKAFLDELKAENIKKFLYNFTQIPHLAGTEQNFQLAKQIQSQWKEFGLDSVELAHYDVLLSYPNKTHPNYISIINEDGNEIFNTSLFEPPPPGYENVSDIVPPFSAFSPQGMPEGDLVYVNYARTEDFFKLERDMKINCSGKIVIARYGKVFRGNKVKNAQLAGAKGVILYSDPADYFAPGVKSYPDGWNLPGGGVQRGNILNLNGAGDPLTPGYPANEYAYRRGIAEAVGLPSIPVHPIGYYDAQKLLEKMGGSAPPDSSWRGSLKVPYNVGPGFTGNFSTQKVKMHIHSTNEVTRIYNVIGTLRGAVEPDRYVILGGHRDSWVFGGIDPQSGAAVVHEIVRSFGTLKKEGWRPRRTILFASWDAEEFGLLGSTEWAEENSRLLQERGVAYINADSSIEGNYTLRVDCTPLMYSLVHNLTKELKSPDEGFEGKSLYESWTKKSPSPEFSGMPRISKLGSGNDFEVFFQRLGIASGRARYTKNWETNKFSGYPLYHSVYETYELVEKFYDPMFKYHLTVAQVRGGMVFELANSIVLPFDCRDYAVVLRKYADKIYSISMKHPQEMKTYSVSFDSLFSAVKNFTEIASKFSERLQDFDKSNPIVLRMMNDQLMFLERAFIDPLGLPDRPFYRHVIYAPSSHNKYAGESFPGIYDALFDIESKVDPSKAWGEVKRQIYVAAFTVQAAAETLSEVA

For “CAR28 (J591), anti-PSMA CAR with scFv derived from antibody J591”, the percentage of CD69-positive CAR Jurkat cells after 24 h stimulation with PSMA-positive tumor cells (C4-2, LNCaP), E:T 1:1 worked out at 70%.

(Values after patent US20210371491A1, “CHIMERIC ANTIGEN RECEPTORS THAT BIND TO PROSTATE SPECIFIC MEMBRANE ANTIGEN” (Albert-Ludwigs-Universitaet Freiburg, priority 2018, published 2021).)
